Kd data for two molecules are collected here from paper PMC7913688, “Human Rev1 relies on insert-2 to promote selective binding and accurate replication of stabilized G-quadruplex motifs”.

In series [1] the target is T1, hRev1 330-833 polymerase core (human, UniProt Q9UBZ9 330-833).
T1 sequence: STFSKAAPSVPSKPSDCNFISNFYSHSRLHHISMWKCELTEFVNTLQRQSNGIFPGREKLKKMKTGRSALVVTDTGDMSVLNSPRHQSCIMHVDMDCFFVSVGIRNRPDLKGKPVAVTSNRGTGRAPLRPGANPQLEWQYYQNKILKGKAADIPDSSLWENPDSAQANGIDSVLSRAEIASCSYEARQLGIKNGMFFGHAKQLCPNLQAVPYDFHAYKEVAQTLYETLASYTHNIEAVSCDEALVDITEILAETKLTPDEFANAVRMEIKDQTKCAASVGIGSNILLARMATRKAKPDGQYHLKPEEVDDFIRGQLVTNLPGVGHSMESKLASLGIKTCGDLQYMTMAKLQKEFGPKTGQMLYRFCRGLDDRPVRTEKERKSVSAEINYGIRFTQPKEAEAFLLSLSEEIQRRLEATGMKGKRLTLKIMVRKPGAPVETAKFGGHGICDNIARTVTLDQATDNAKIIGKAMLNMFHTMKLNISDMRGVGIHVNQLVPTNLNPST
In words: fluorescence polarization; 100 mM LiCl; Fluorescence polarization: 1 nM FAM-DNA, 100 mM KCl or LiCl; DNA annealed in 50 mM HEPES pH 7.5; full buffer as in cited ref 17, temperature not stated. Footprinting: 50 mM HEPES pH 7.5, 100 mM KCl, 10 uM protein, 30 uM ssDNA, room temperature. The settings on record: protein: recombinant; label: 5'-FAM. Background: Polarisation of emitted light reports the rotation of a fluorescent probe.

Series [2] deals with T2, hRev1 full-length (human, UniProt Q9UBZ9 1-1251).
T2 sequence: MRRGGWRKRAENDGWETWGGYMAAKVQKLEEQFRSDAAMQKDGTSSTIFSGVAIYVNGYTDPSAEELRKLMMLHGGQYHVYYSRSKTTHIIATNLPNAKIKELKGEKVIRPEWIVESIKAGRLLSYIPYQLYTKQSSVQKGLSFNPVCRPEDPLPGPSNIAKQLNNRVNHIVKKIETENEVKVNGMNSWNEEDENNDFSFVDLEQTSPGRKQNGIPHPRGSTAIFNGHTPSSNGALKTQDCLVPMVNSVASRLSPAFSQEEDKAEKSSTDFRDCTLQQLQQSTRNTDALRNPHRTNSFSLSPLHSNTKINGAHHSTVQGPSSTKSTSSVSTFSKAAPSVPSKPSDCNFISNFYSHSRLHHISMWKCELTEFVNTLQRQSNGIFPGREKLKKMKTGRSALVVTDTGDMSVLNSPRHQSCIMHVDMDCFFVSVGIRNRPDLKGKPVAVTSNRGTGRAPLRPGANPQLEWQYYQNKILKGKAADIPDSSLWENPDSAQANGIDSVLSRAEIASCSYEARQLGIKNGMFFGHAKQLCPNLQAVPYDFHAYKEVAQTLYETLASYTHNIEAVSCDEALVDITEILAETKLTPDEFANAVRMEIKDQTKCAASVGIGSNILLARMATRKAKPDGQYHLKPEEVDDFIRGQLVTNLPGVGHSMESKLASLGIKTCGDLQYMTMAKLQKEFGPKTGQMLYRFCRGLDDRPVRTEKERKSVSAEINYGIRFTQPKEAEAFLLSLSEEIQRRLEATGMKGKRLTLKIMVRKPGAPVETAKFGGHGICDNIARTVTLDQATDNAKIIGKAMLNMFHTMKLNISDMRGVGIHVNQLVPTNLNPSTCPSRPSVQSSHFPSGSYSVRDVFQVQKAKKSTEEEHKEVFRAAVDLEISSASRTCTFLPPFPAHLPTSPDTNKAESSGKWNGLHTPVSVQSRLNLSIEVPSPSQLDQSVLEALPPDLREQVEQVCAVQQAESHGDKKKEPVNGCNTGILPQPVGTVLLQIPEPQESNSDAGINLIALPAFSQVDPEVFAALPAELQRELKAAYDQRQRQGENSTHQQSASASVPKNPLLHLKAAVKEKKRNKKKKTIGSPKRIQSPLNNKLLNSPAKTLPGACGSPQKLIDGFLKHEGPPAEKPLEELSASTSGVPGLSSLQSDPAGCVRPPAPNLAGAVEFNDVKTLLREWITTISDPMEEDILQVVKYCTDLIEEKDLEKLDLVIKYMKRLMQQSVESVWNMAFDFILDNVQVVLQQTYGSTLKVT
In words: fluorescence polarization; 100 mM KCl; Fluorescence polarization: 1 nM FAM-DNA, 100 mM KCl or LiCl; DNA annealed in 50 mM HEPES pH 7.5; full buffer as in cited ref 17, temperature not stated. Footprinting: 50 mM HEPES pH 7.5, 100 mM KCl, 10 uM protein, 30 uM ssDNA, room temperature. Particulars: protein: recombinant, label: 5'-FAM.

For series [3], the target named is T1, hRev1 330-833 polymerase core. Described as above. The settings on record: protein: recombinant, label: 5'-FAM.
The mark [4] stands for this setting: parallel G4 (1:2:1 loops) in K+.

By Kd is commonly meant the constant that tells how readily two partners part at equilibrium. Turning to AGCGTGCGTAGCGTGCGTTATGAGATGAT (ssDNA) [Non-G4 Myc control ss], the Kd in series [1] was 760 ± 290 nM; in series [2], 110 ± 20 nM; in series [3] it was 910 ± 120 nM.
Take AGGGTGGGTAGGGTGGGTTATGAGATGAT (structured_DNA) [Myc 14/23 ss G4]: the figures for the Kd in series [2] (setting [4]) and in series [3] (setting [4]) were 5 ± 1 nM and 37 ± 7 nM, respectively.
